According to patent US20050032696A1:

Target: MEF2C (pcDNAMEF2C, mouse MEF2C cDNA) (mouse) (UniProt Q8CFN5)
Test: cell-based or functional assay

Chain of MEF2C (pcDNAMEF2C, mouse MEF2C cDNA) (mouse) (Q8CFN5 whole entry): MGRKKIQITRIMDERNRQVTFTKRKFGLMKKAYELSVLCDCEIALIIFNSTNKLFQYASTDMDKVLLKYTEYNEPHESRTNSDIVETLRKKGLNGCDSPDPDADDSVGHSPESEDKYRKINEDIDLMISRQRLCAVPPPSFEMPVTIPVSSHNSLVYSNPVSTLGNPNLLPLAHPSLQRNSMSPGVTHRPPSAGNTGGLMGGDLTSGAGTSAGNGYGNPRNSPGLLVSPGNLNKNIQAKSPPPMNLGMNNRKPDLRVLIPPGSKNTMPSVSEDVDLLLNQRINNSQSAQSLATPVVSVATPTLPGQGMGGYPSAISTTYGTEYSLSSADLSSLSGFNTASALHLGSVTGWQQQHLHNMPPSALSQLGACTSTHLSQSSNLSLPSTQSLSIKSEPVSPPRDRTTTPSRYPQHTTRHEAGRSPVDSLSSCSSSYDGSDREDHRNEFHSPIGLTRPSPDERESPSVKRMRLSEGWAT

MEF2C-mediated transcriptional activation of the hTnIslow USE (luciferase reporter, co-transfected C2C12 cells): 3 fold
Substance: hMusTRD1α1944aa (pcDNA3.1hMusTRD1α1944aamyc/his) (from UniProt Q9UHL9 1-959)
